# Source: paper PMC8584381, “A Small Step, a Giant Leap: Somatic Hypermutation of a Single Amino Acid Leads to Anti-La Autoreactivity” (International Journal of Molecular Sciences, 2021)
# Experiments:
# [1] = target: T1, recombinant human La protein (Homo sapiens, UniProt P05455); experiment: far-Western, overlay or dot blot; SDS-PAGE/immunoblotting under denaturing conditions: 2 µg rh-La or TCM-La on nitrocellulose, IgG4 ab constructs at 1.5 µg/mL in Blocking Solution, detected with anti-human IgG4-HRP; details: both partners purified
# T1 construct: La protein (La/SS-B, Sjögren's syndrome associated antigen B), human; It calls wildtype La an undefined mixture of oxidized and reduced protein; also called rh-La; wildtype La protein; source: bacteria lysates, purified (Ni-NTA)
# T1 sequence (P05455 whole entry): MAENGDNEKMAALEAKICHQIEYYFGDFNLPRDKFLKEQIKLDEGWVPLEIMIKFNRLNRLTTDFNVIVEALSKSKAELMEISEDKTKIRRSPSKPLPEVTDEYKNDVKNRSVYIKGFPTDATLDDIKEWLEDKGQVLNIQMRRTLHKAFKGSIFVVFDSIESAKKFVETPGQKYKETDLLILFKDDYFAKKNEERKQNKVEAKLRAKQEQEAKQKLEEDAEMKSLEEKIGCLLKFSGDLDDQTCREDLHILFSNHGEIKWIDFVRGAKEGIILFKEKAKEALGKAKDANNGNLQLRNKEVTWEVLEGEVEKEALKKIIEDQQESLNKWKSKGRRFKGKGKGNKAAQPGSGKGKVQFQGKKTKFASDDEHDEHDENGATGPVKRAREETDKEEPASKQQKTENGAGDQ
# [2] = target: T2, native human La protein of HeLa total cell extract (Homo sapiens (HeLa, endogenous), UniProt P05455); experiment: co-IP; HeLa total extract (50 nM Tris/HCl pH 8.0, 150 mM NaCl, 1% IGEPAL CA-630) mixed with 2 µg purified ab and Protein G MicroBeads, on ice 30 min; La detected by blot with anti-La mab 5B9; details: one partner purified
# T2 construct: La protein (La/SS-B), human, endogenous in HeLa cells; also called native La protein; source: endogenous, HeLa total extract
# T2 sequence (P05455 whole entry): as above
binding result [1],binding result [2],Binder
binds,binds,"murine 312B-IgG4 (scFv of the mature 312B VH and VL fused to human IgG4 Fc) (Fc fusion, mouse, flexible linker of three G4S motifs; VH-VL orientation; N-terminal murine Ig kappa leader for secretion; also called mature ab; source: permanent 3T3 production cell line, purified from cell culture supernatant (protein A); not shown: Fc (human IgG4, CH2 and CH3), C-terminal, kept) VH: QVKLQESGAELMKPGSSVKFSCKAAGYTFTDYWIEWLKQRPGHGLEWIGEILPGSVSIKYNEKFKGKATFTADTSSNTAYMQLSSLTSEDSAVYYCARSRSIYDGYFYYWGQGTTLTVSS VL: DIVMTQSTASLSASVGETVTITCRASENIYTYLAWYQQKQGKSPQLLVYNAKTLAEGVPSRFSGSGSGTQFSLRINSLQPEDFGSYYCQHHYGTPYTFGGGTKLEIK"
binds,binds,"mutated germline 312B-IgG4 with an aspartate to tyrosine mutation in the CDR3 region of the VH domain (Fc fusion, mouse, as the germline VH of m6 with the aspartate in CDR3 replaced by tyrosine; flexible linker of three G4S motifs; as the germline VL of m6; VH-VL orientation; N-terminal murine Ig kappa leader for secretion; also called gl312B-D > Y; source: permanent 3T3 production cell line, purified from cell culture supernatant (protein A); not shown: Fc (human IgG4, CH2 and CH3), C-terminal, kept) VH: QVQLQQSGAELMKPGASVKLSCKATGYTFTGYWIEWVKQRPGHGLEWIGEILPGSGSTNYNEKFKGKATFTADTSSNTAYMQLSSLTTEDSAIYYCARSRSIYDGYFYYWGQGTTLTVSS VL: DIQMTQSPASLSASVGETVTITCRASENIYSYLAWYQQKQGKSPQLLVYNAKTLAEGVPSRFSGSGSGTQFSLKINSLQPEDFGSYYCQHHYGTPYTFGGGTKLEIK"
